# From patent US20260174875A1 (Novo Nordisk A/S, priority 2023, published 2026)
# Numbered stars: 1 amine (or outer) side, 2 acyl side, 3 side chain; on linkers, the order of the positions; unused ones are H or OH. Square brackets hold non-standard residues; d marks the D form. Side chains are listed from the residue outwards. * marks the point of attachment. C20 diacid = O=C(O)CCCCCCCCCCCCCCCCCCC(=O)*; C18 diacid = O=C(O)CCCCCCCCCCCCCCCCC(=O)*; C16 diacid = O=C(O)CCCCCCCCCCCCCCC(=O)*; γGlu = O=C(O)[C@H](CCC(=O)[*:2])N[*:1]; Chem. 28 = not defined here; AEEA = NCCOCCOCC(=O)O; Aib = CC(C)(N)C(=O)O
# T1: human GIP receptor (human, UniProt P48546 22-466)
# T1 sequence (looked up): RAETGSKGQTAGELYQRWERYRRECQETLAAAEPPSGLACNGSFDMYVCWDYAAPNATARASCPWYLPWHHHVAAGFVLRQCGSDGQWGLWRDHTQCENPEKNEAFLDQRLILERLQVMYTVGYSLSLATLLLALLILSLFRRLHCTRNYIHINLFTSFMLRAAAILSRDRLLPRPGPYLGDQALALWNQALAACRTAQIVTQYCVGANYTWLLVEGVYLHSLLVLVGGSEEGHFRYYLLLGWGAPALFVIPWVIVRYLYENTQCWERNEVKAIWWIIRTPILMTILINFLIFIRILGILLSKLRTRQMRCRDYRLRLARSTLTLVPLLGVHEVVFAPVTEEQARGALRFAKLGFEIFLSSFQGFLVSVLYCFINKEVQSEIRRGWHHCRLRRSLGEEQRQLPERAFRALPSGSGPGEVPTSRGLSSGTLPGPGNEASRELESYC
# T2: human amylin-3(a) receptor (human, UniProt P30988 25-474; O60896 24-148)
# T2 sequence (looked up) 1: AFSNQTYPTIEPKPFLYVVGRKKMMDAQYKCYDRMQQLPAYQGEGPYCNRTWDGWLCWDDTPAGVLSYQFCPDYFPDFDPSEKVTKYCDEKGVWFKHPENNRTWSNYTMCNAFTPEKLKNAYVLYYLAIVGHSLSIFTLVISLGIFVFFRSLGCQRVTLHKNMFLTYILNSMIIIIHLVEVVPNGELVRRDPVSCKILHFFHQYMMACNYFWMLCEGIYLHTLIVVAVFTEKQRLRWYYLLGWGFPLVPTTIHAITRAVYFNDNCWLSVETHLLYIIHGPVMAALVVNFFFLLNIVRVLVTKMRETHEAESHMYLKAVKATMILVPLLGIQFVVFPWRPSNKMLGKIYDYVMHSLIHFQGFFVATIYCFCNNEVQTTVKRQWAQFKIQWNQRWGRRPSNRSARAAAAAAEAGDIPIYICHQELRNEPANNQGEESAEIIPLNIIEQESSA
# T2 sequence (looked up) 2: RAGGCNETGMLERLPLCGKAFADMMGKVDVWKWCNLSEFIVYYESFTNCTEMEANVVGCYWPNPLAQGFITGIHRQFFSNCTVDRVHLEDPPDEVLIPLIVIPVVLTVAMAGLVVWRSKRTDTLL
# B1: Compound 16 (peptide)
# peptide: H[Aib]HGTFTSDYSILLEEQAAREFIEWLLAGGPSK([AEEA-AEEA-γGlu-C20 diacid])GAPPPSGGGEASELSTAALGRLSAELHELATLPRTETGSGSP-NH2
# B2: Compound 15 (peptide)
# peptide: H[Aib]HGTFTSDYSILLEEQAAREFIEWLLAGGPSK([AEEA-AEEA-γGlu-C18 diacid])GAPPPSGGGEASELSTAALGRLSAELHELATLPRTETGSGSP-NH2
# B3: Compound 17 (peptide)
# peptide: H[Aib]HGTFTSDYSILLEEQAAREFIEWLLAGGPSK([AEEA-AEEA-γGlu-C16 diacid])GEASELSTAALGRLSAELHRLATLPRTETGSGSP-NH2
# B4: Compound 26 (peptide)
# peptide: Y[Aib]EGTFTSDYSILLEEQAAREFIEWLLAGGPSK(Chem. 28)GEASELSTAALGRLSAELHELATLPRTETGSGSP-NH2
# modifications: reading uncertain
# Molecular target: T3, human GLP-1 receptor (human, UniProt P43220 24-463)
# Test: cell-based or functional assay
# Settings: not given
row,Molecule,"hGLP-1R Potency, no HSA, EC50 [pM]"
1,B1,2.74 pM
2,B2,1.41 pM
3,B3,2.72 pM
4,B4,20.7 pM

# Molecular target: T1, human GIP receptor
# Test: cell-based or functional assay
# Settings: not given
row,Molecule,"hGIPR Potency, no HSA, EC50 [pM]"
1,B1,4.27 pM
2,B2,3.2 pM
3,B3,5.04 pM
4,B4,1.75 pM

# Molecular target: T2, human amylin-3(a) receptor
# Test: cell-based or functional assay
# Settings: not given
row,Molecule,"hAMYR3 Potency, no HSA, EC50 [pM]"
1,B1,5.7 pM
2,B2,5.01 pM
3,B3,5.13 pM
4,B4,11.8 pM

# Molecular target: T3, human GLP-1 receptor
# Test: cell-based or functional assay
# Settings: not given
# Remark: another data set of the same source
row,Molecule,"hGLP-1R Potency, 1% HSA, EC50 [pM]"
1,B1,238 pM
2,B2,103 pM
3,B3,13.1 pM
4,B4,1680 pM

# Molecular target: T1, human GIP receptor
# Test: cell-based or functional assay
# Settings: not given
# Remark: another data set of the same source
row,Molecule,"hGIPR Potency, 1% HSA, EC50 [pM]"
1,B1,485 pM
2,B2,356 pM
3,B3,36.9 pM
4,B4,558 pM

# Molecular target: T2, human amylin-3(a) receptor
# Test: cell-based or functional assay
# Settings: not given
# Remark: another data set of the same source
row,Molecule,"hAMYR3 Potency, 1% HSA, EC50 [pM]"
1,B1,166 pM
2,B2,82.2 pM
3,B3,33.6 pM
4,B4,349 pM

# Tested on: not listed separately
# Test: Chemical stability assessment in formulation (UPLC-UV-MS purity loss at 37° C.)
# Assay type: physicochemical
# Settings: 8 mM phosphate buffer pH 7.4, 1 mg/mL, 2 weeks
# Protocol: The assay was performed to investigate the extend of chemical degradation in vitro over time upon incubation at 37° C. for a period of 2 weeks.
# Peptide solutions were prepared by dissolving freeze-dried powder in 8 mM phosphate buffer pH 7.4 to a target of 1 mg/mL. The pH of peptide solutions was adjusted to 7.4 with 0.02 M HCl or 0.02 M NaOH. Samples were filled in Agilent HPLC vials with fixed insert. Vials were capped to prevent evaporation. The HPLC vials were incubated at 37° C. and samples were withdrawn at different time points over a period of 2 weeks, flash frozen at −80° C., and stored at −20° C. until analysis.
# A flow-rate of 100 μL/min was delivered with a Binary solvent manager pump having 0.1% formic acid in water as solvent A and 0.1% formic acid in acetonitrile as solvent B. Gradient elution was carried out using 20% B from 0 to 2 min followed by 20 to 50% B from 2 to 20 min in a total run time of 30 min.
row,Molecule,Purity loss per week at 37° C.
1,CC[C@H](C)[C@H](NC(=O)[C@H](CCC(=O)O)NC(=O)[C@H](CCC(=O)O)NC(=O)[C@H](CC(C)C)NC(=O)[C@H](CC(C)C)NC(=O)[C@H](CCCCNC(=O)COCCOCCNC(=O)COCCOCCNC(=O)CC[C@H](NC(=O)CCCCCCCCCCCCCCCCCCC(=O)O)C(=O)O)NC(=O)[C@H](CO)NC(=O)[C@H](Cc1ccc(O)cc1)NC(=O)[C@H](CC(=O)O)NC(=O)[C@H](CO)NC(=O)[C@@H](NC(=O)[C@H](Cc1ccccc1)NC(=O)[C@@H](NC(=O)CNC(=O)[C@H](CCC(=O)O)NC(=O)C(C)(C)NC(=O)[C@@H](N)Cc1ccc(O)cc1)[C@@H](C)O)[C@@H](C)O)C(=O)N[C@@H](C)C(=O)N[C@@H](C)C(=O)N[C@@H](CCCNC(=N)N)C(=O)N[C@@H](CCC(=O)O)C(=O)N[C@@H](Cc1ccccc1)C(=O)N[C@H](C(=O)N[C@@H](CCC(=O)O)C(=O)N[C@@H](Cc1c[nH]c2ccccc12)C(=O)N[C@@H](CC(C)C)C(=O)N[C@@H](CC(C)C)C(=O)N[C@@H](C)C(=O)NCC(=O)NCC(=O)N1CCC[C@H]1C(=O)N[C@@H](CO)C(=O)N[C@@H](CO)C(=O)NCC(=O)N[C@@H](C)C(=O)NCC(=O)N[C@@H](CCC(N)=O)C(=O)N[C@@H](C)C(=O)N1CCC[C@H]1C(=O)NCC(=O)N[C@@H](CCC(N)=O)C(=O)N[C@@H](C)C(=O)N1CCC[C@H]1C(=O)NCC(=O)N[C@@H](C)C(=O)N[C@@H](CO)C(=O)N[C@@H](Cc1c[nH]cn1)C(=O)N[C@@H](CC(C)C)C(=O)N[C@@H](CO)C(=O)N[C@H](C(=O)N[C@@H](C)C(=O)N[C@@H](CCC(N)=O)C(=O)N[C@@H](CC(C)C)C(=O)NCC(=O)N[C@@H](CCCNC(=N)N)C(=O)N[C@@H](CC(C)C)C(=O)N[C@@H](CO)C(=O)N[C@@H](C)C(=O)N[C@@H](CCC(=O)O)C(=O)N[C@@H](CC(C)C)C(=O)N[C@@H](Cc1c[nH]cn1)C(=O)N[C@@H](CCC(N)=O)C(=O)N[C@@H](CC(C)C)C(=O)N[C@@H](C)C(=O)N[C@H](C(=O)N[C@@H](CC(C)C)C(=O)N1CCC[C@H]1C(=O)N[C@@H](CCCNC(=N)N)C(=O)N[C@H](C(=O)N[C@@H](CCC(=O)O)C(=O)N[C@H](C(=O)NCC(=O)N[C@@H](CO)C(=O)NCC(=O)N[C@@H](CO)C(=O)N1CCC[C@H]1C(N)=O)[C@@H](C)O)[C@@H](C)O)[C@@H](C)O)[C@@H](C)O)[C@@H](C)CC [Compound 123],1.0%
2,CC[C@H](C)[C@H](NC(=O)[C@H](CCC(=O)O)NC(=O)[C@H](CCC(=O)O)NC(=O)[C@H](CC(C)C)NC(=O)[C@H](CC(C)C)NC(=O)[C@@H](NC(=O)[C@H](CO)NC(=O)[C@H](Cc1ccc(O)cc1)NC(=O)[C@H](CC(=O)O)NC(=O)[C@H](CO)NC(=O)[C@@H](NC(=O)[C@H](Cc1ccccc1)NC(=O)[C@@H](NC(=O)CNC(=O)[C@H](CCC(=O)O)NC(=O)C(C)(C)NC(=O)[C@@H](N)Cc1ccc(O)cc1)[C@@H](C)O)[C@@H](C)O)[C@@H](C)CC)C(=O)N[C@@H](C)C(=O)N[C@@H](C)C(=O)N[C@@H](CCCNC(=N)N)C(=O)N[C@@H](CCC(=O)O)C(=O)N[C@@H](Cc1ccccc1)C(=O)N[C@H](C(=O)N[C@@H](CCC(=O)O)C(=O)N[C@@H](Cc1c[nH]c2ccccc12)C(=O)N[C@@H](CC(C)C)C(=O)N[C@@H](CC(C)C)C(=O)N[C@@H](C)C(=O)NCC(=O)NCC(=O)N1CCC[C@H]1C(=O)N[C@@H](CO)C(=O)N[C@@H](CO)C(=O)NCC(=O)N[C@@H](CCC(=O)O)C(=O)NCC(=O)N[C@@H](CCC(N)=O)C(=O)N[C@@H](C)C(=O)N1CCC[C@H]1C(=O)NCC(=O)N[C@@H](CCC(N)=O)C(=O)N[C@@H](C)C(=O)N1CCC[C@H]1C(=O)NCC(=O)N[C@@H](C)C(=O)N[C@@H](CO)C(=O)N[C@@H](Cc1c[nH]cn1)C(=O)N[C@@H](CC(C)C)C(=O)N[C@@H](CO)C(=O)N[C@H](C(=O)N[C@@H](C)C(=O)N[C@@H](CCC(N)=O)C(=O)N[C@H](C(=O)N[C@@H](CCC(N)=O)C(=O)N[C@@H](CCCNC(=N)N)C(=O)N[C@@H](CC(C)C)C(=O)N[C@@H](CO)C(=O)N[C@@H](C)C(=O)N[C@@H](CCC(=O)O)C(=O)N[C@@H](CC(C)C)C(=O)N[C@@H](Cc1c[nH]cn1)C(=O)N[C@@H](CCCCNC(=O)COCCOCCNC(=O)COCCOCCNC(=O)CC[C@H](NC(=O)CCCCCCCCCCCCCCCCCCC(=O)O)C(=O)O)C(=O)N[C@@H](CC(C)C)C(=O)N[C@@H](C)C(=O)N[C@H](C(=O)N[C@@H](CC(C)C)C(=O)N1CCC[C@H]1C(=O)N[C@@H](CCCNC(=N)N)C(=O)N[C@H](C(=O)N[C@@H](CCC(=O)O)C(=O)N[C@H](C(=O)NCC(=O)N[C@@H](CO)C(=O)NCC(=O)N[C@@H](CO)C(=O)N1CCC[C@H]1C(N)=O)[C@@H](C)O)[C@@H](C)O)[C@@H](C)O)[C@@H](C)O)[C@@H](C)O)[C@@H](C)CC [Compound 147],1.0%
